Test results taken from patent US20240424057A1 (CASE WESTERN RESERVE UNIVERSITY, published 2024).

Columns and labels:
[1] = target: T1, PTPRD extracellular domain, His-tagged (Acro Biosystems, PTD-H52H9) (Homo sapiens (Human), UniProt P23468 21-1265); assay: SPR (Biacore T200), PTPRD amine-coupled on CM5 chip, asprosin injected, steady-state analysis
T1 construct: only the extracellular domain stood in the assay; also called rPTPRD; rPTPRD-LBD; not shown: His tag (labelled with the His-Tag Labeling Kit RED-tris-NTA)
T1 sequence: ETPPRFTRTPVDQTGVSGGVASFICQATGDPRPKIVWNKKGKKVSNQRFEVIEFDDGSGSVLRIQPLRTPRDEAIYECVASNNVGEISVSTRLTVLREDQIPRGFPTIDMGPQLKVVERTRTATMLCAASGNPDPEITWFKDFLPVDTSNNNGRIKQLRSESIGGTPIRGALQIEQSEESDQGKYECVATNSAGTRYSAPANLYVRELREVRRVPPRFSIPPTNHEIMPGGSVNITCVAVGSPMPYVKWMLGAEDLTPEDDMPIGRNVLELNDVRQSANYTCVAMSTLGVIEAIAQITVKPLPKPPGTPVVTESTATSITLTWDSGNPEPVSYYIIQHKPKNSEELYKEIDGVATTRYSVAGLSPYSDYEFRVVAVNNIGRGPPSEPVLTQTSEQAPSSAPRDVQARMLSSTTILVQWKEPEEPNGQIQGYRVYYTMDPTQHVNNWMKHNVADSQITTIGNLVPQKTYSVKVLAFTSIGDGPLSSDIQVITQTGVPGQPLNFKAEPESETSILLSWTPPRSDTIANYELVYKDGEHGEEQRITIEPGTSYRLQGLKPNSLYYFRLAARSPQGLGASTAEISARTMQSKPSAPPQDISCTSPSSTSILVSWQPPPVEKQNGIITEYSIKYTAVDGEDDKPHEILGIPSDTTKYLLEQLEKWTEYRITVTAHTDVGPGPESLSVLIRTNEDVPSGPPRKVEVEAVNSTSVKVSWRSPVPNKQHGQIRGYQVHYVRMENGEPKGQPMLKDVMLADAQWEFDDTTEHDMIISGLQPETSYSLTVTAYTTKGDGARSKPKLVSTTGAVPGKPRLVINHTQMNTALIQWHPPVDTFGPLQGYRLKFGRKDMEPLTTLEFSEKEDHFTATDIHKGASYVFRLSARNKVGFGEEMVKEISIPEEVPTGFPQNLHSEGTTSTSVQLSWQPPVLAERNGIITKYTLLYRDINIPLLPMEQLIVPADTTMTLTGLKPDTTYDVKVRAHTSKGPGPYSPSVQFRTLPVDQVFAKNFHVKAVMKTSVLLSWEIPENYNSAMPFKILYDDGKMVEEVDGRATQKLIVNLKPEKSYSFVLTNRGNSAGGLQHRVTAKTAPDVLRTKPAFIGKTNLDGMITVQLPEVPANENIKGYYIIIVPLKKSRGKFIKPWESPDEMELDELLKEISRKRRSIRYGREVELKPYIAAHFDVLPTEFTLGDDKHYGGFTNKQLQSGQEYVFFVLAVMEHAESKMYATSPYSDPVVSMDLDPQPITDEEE
Description: Surface plasmon resonance (SPR) studies were performed using Biacore T200 with PTPRD (Acro Biosystems, PTD-H52H9) covalently immobilized on an S series CM5 sensor chip via amine coupling. To avoid protein aggregation, […] used in SPR experiments were purified by gel filtration in a buffer containing 25 mM Tris-HCl (pH 8.0), 100 mM NaCl and 5 mM DTT, stored at 4° C., and used within 48 hr with minimum concentration process. Asprosin was injected in a series of concentrations from […] to 7.8125 nM was injected at 30 μl/min over the sensor chip at room temperature. Sensorgram traces subtracted with the reference and zero-concentration traces were analyzed using BIA Evaluation software (GE Healthcare Bio-Sciences). Nonlinear steady-state analysis was performed to compute Kd.

[2] = target: T2, recombinant PTPRD-his protein, extracellular domain (Creative BioMart, PTPRD-36H) (Homo sapiens (Human), UniProt P23468 21-1265, biotinylated with EZ-Link-Sulfo-NHS-Biotin in the BLI assay); assay: bio-layer interferometry (Octet RED96), biotinylated PTPRD on SSA biosensors, asprosin 1.23-900 nM, 1:1 global fit
T2 construct: only the extracellular domain stood in the assay; Used in the co-immunoprecipitation and in BLI; also called rPTPRD-his; PTPRD-6his; not shown: 6xHis tag
T2 sequence: T1 sequence
Description: (§1) Binding affinity of asprosin to PTPRD was measured on Pall ForteBio's Octet RED96 system. The PTPRD protein (Creative BioMart, PTPRD-36H) was labeled with Biotin using EZ-Link-Sulfo-NHS-Biotin (ThermoFisher Scientific, 21217) and desalted by Zeba™ Spin Desalting Columns. The biotin-labeled PTPRD (20 μg/ml) was loaded on the super streptavidin (SSA) biosensors for 300 seconds. Following 20 seconds of baseline in kinetics buffer, the loaded biosensors were dipped into a series of 3-fold diluted human asprosin (1.23-900 nM) for 300 seconds to record association kinetics and then dipped into a kinetic buffer for 600 seconds to record dissociation kinetics. Kinetic buffer without asprosin was set to correct the background. For fitting of KD value, ForteBio's data analysis software was used to fit the curve by a 1:1 binding model and the global fitting method was applied.

[3] = target: T1, PTPRD extracellular domain, His-tagged …; assay: microscale thermophoresis, fluorescently labelled PTPRD, unlabelled asprosin titrated
Description: The microscale thermophoresis (MST) assay was performed with the Monolith NT.115 from NanoTemper Technologies. PTPRD (Acro Biosystems, PTD-H52H9) was fluorescently labeled according to the manufacturer's protocol (His-Tag Labeling Kit RED-tris-NTA, NanoTemper). A solution of unlabeled asprosin was serially diluted according to the manufacturer's protocol. After labeled PTPRD and unlabeled asprosin were mixed and incubated at room temperature for 30 minutes, samples were loaded into glass capillaries (Monolith NT.115 Capillaries, NanoTemper). Measurements were carried out according to manufacturer's protocol: 40% power and 40% MST power. Assays were repeated three times and KD's were calculated using the NanoTemper analysis software.

[4] = target: T2, recombinant PTPRD-his protein, …; assay: bio-layer interferometry (Octet RED96), biotin-labelled PTPRD on super streptavidin biosensors, asprosin 1.23-900 nM in solution, 1:1 global fit
Description: as §1

Kd [1]: 36.8 nM | Kd [2]: 57 nM | Kd [3]: 4.2 nM | koff [4]: 0.000377 s⁻¹ | kon [4]: 6610 M⁻¹ s⁻¹
B1: recombinant human asprosin (ligand, UniProt P35555 2732-2871, looked up)
chain: STNETDASNIEDQSETEANVSLASWDVEKTAIFAFNISHVSNKVRILELLPALTTLTNHNRYLIESGNEDGFFKINQKEGISYLHFTKKKPVAGTYSLQISSTPLYKKKELNQLEDKYDKDYLSGELGDNLKMKIQVLLH
notes: domain: cleaved asprosin; Unlabelled analyte in SPR, MST and BLI, and the recombinant asprosin used in IP/MS, ELISA and slice electrophysiology; Only the BLI and ELISA methods call it human; also called rAsprosin; recombinant asprosin
